Reference: patent publication EP4793287A1, “TUMOR MICROENVIRONMENT SPECIFICALLY ACTIVATED CD47 ANTIBODY” (Affinity (Shanghai) Biopharmaceutical Co., Ltd., priority 2023, dated 2025)

Columns and labels:
[1] = biological target: T1, Recombinant human CD47 protein (Homo sapiens, UniProt Q08722); assay: ELISA detection of CD47 antibody; format: binding
T1 construct: purchased DIMA BIOTECH PME-100008
Description: Recombinant human CD47 protein (DIMA BIOTECH, Cat# PME-100008) was diluted with PBS to a concentration of 1 µg/ml, coated onto ELISA plates with 100 µl/well, and incubated overnight at 4 °C. On the following day, the plates were washed with 300 µl/well of PBST for three times. 300 µl/well of blocking solution (PBST containing 1% BSA (W/W)) was added, and the plates were blocked at 37 °C for 2 hours. After the blocking solution was discarded, the plates were washed with PBST for three times. 100 µl/well of antibody (5-fold gradient dilution, 8 dilution points) was added and incubated at 37 °C for 1 hour. The antibody solution was then discarded, and the plates were washed with PBST for three times. Goat anti-Human IgG Fc Highly Cross-Adsorbed Secondary Antibody, HRP (Invitrogen, Cat# A18829, 1:5000 dilution, 100 µl/well) was added and incubated at 37 °C for 0.5 hours, followed by three washes with PBST. 100 µl/well of TMB chromogenic substrate (solarbio, Cat# PR1200) was added and incubated at 37 °C for 5 minutes, after which 50 µl/well of ELISA stop solution (solarbio, Cat# C1058) was added. The OD450 was read using a microplate reader (ELx800 Absorbance Microplate Reader, BioTek). Data analysis and curve fitting were performed using software (GraphPad Prism 8).

[2] = tested on: Human Burkitt's lymphoma RAJI cells; assay: In vivo efficacy, subcutaneous RAJI transplanted tumor model; set-up: species or system NOD-SCID mice; settings: for T/C ratio / TGI inhibition rate: after 31 days of treatment
Description: (§1) Human Burkitt's lymphoma RAJI cells were subcutaneously transplanted into NOD-SCID mice to establish an in vivo model. RAJI cells were cultured according to standard culture conditions and were collected during the exponential growth phase for counting. Each mouse was inoculated on the right flank with 1×10^7 human Burkitt's lymphoma RAJI cells (suspended in 0.1 ml of basal medium). After inoculation, when the tumors grew to 80-114 mm^3 (7 days post-tumor implantation), the mice were randomly grouped based on body weight and tumor volume. The experimental groups were divided as follows:
(§2) Treatment was started on the day of grouping. Mice were weighed, and tumor volumes were measured twice a week. Tumor volume was calculated using the formula: tumor volume = 1/2 × length × width × width (mm^3). The tumor growth inhibition rate TGI (%) was calculated as [1 - (Tt - T0) / (Ct - C0)] × 100%. The tumor inhibition rate T/C (%) was calculated as (Tt/T0) / (Ct/C0) × 100%. T0 represents the tumor volume of the test antibody group at the time of grouping; Tt represents the tumor volume of the test antibody group at each measurement; C0 represents the average tumor volume of the PBS group at the time of grouping; Ct represents the average tumor volume of the PBS group at each measurement.

[3] = tested on: Human small cell lung cancer SHP-77 cells; assay: In vivo efficacy, subcutaneous SHP-77 tumor model (Example 11); set-up: species or system CB17-SCID mice; settings: for T/C ratio / TGI inhibition rate: after 38 days of treatment
Description: as §1, with “small cell lung cancer SHP-77” for “Burkitt's lymphoma RAJI”, “CB17-SCID” for “NOD-SCID”, “SHP-77” for “RAJI”, “2.5×10^6” for “1×10^7”, “60-103” for “80-114”, “(5” for “(7”
as §2

T1 sequence (Q08722 19-323): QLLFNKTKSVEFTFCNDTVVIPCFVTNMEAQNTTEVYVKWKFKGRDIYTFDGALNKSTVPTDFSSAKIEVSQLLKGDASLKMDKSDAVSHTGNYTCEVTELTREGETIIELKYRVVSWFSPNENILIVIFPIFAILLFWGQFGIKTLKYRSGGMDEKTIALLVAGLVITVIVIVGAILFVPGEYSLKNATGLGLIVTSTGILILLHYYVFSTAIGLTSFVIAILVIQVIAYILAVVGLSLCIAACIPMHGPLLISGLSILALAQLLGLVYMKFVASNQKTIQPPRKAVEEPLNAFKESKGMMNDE

B1: CD47 TMEAbody: CD47 TMEAbody conjugated with PEG of approximately 20K molecular weight (i.e., PEG20K) (conjugate)
VH: QQQLEESGGGLVKPEGSLTLTCTASGFSFSSGYDMCWVRQAPGRGLEWIACIYTRSSGGTCYASWAKGRFTISKTSSTVDLRMTSLTAADTATYFCAGGRSSYRLNLWGQGALVTVSS
VL: DVVMTQTPSPVEAAVGGTVTIKCQASQSISNELSWYQQKPGQPPKLLIYRASTLESGVSSRFKGSGSGTEFTLTISDLECADAATYYCQSTFYGDYGNAFGGGTEVVVK
binding affinity weaker compared to 70H1 [1]: approximately 7 fold
recovery of binding affinity ([1]; legumain (asparaginyl endopeptidase, AEP)): recoverable by legumain
Tumor Volume ([2]; 0.3 mg/kg, D0): 94.56 mm^3
Tumor Volume ([2]; 0.3 mg/kg, D3): 123.83 mm^3
Tumor Volume ([2]; 0.3 mg/kg, D7): 147.44 mm^3
Tumor Volume ([2]; 0.3 mg/kg, D10): 232.04 mm^3
Tumor Volume ([2]; 0.3 mg/kg, D14): 358.82 mm^3
Tumor Volume ([2]; 0.3 mg/kg, D17): 511.34 mm^3
Tumor Volume ([2]; 0.3 mg/kg, D21): 849.95 mm^3
Tumor Volume ([2]; 0.3 mg/kg, D24): 1156.48 mm^3
Tumor Volume ([2]; 0.3 mg/kg, D28): 1887.63 mm^3
Tumor Volume ([2]; 0.3 mg/kg, D31): 2532.90 mm^3
T/C ratio ([2]; 0.3 mg/kg): 93.73%
TGI inhibition rate ([2]; 0.3 mg/kg): 6.45%
Tumor Volume ([2]; 1 mg/kg, D0): 94.25 mm^3
Tumor Volume ([2]; 1 mg/kg, D3): 100.17 mm^3
Tumor Volume ([2]; 1 mg/kg, D7): 116.36 mm^3
Tumor Volume ([2]; 1 mg/kg, D10): 162.08 mm^3
Tumor Volume ([2]; 1 mg/kg, D14): 214.12 mm^3
Tumor Volume ([2]; 1 mg/kg, D17): 307.27 mm^3
Tumor Volume ([2]; 1 mg/kg, D21): 384.91 mm^3
Tumor Volume ([2]; 1 mg/kg, D24): 485.51 mm^3
Tumor Volume ([2]; 1 mg/kg, D28): 679.76 mm^3
Tumor Volume ([2]; 1 mg/kg, D31): 890.40 mm^3
T/C ratio ([2]; 1 mg/kg): 33.06%
TGI inhibition rate ([2]; 1 mg/kg): 69.46%
Tumor Volume ([2]; 3 mg/kg, D0): 93.15 mm^3
Tumor Volume ([2]; 3 mg/kg, D3): 91.90 mm^3
Tumor Volume ([2]; 3 mg/kg, D7): 81.07 mm^3
Tumor Volume ([2]; 3 mg/kg, D10): 87.74 mm^3
Tumor Volume ([2]; 3 mg/kg, D14): 92.16 mm^3
Tumor Volume ([2]; 3 mg/kg, D17): 91.91 mm^3
Tumor Volume ([2]; 3 mg/kg, D21): 129.68 mm^3
Tumor Volume ([2]; 3 mg/kg, D24): 117.69 mm^3
Tumor Volume ([2]; 3 mg/kg, D28): 125.24 mm^3
Tumor Volume ([2]; 3 mg/kg, D31): 120.05 mm^3
T/C ratio ([2]; 3 mg/kg): 4.51%
TGI inhibition rate ([2]; 3 mg/kg): 98.97%
tumor growth inhibition ([2]; 0.3-3 mg/kg): significant tumor growth inhibition
changes in body weight ([2]; during the treatment period): No significant changes in body weight
Tumor Volume ([3]; 0.3 mg/kg, D0): 79.15 mm^3
Tumor Volume ([3]; 0.3 mg/kg, D3): 63.51 mm^3
Tumor Volume ([3]; 0.3 mg/kg, D7): 44.29 mm^3
Tumor Volume ([3]; 0.3 mg/kg, D10): 42.63 mm^3
Tumor Volume ([3]; 0.3 mg/kg, D14): 42.49 mm^3
Tumor Volume ([3]; 0.3 mg/kg, D17): 44.81 mm^3
Tumor Volume ([3]; 0.3 mg/kg, D21): 74.08 mm^3
Tumor Volume ([3]; 0.3 mg/kg, D24): 116.17 mm^3
Tumor Volume ([3]; 0.3 mg/kg, D28): 142.04 mm^3
Tumor Volume ([3]; 0.3 mg/kg, D31): 194.29 mm^3
Tumor Volume ([3]; 0.3 mg/kg, D35): 272.39 mm^3
Tumor Volume ([3]; 0.3 mg/kg, D38): 373.67 mm^3
T/C ratio ([3]; 0.3 mg/kg): 29.52%
TGI inhibition rate ([3]; 0.3 mg/kg): 75.38%
Tumor Volume ([3]; 1 mg/kg, D0): 79.75 mm^3
Tumor Volume ([3]; 1 mg/kg, D3): 69.70 mm^3
Tumor Volume ([3]; 1 mg/kg, D7): 47.94 mm^3
Tumor Volume ([3]; 1 mg/kg, D10): 36.61 mm^3
Tumor Volume ([3]; 1 mg/kg, D14): 32.95 mm^3
Tumor Volume ([3]; 1 mg/kg, D17): 20.93 mm^3
Tumor Volume ([3]; 1 mg/kg, D21): 19.98 mm^3
Tumor Volume ([3]; 1 mg/kg, D24): 27.75 mm^3
Tumor Volume ([3]; 1 mg/kg, D28): 17.69 mm^3
Tumor Volume ([3]; 1 mg/kg, D31): 21.42 mm^3
Tumor Volume ([3]; 1 mg/kg, D35): 15.37 mm^3
Tumor Volume ([3]; 1 mg/kg, D38): 14.44 mm^3
T/C ratio ([3]; 1 mg/kg): 1.13%
TGI inhibition rate ([3]; 1 mg/kg): 105.46%
Tumor Volume ([3]; 3 mg/kg, D0): 79.00 mm^3
Tumor Volume ([3]; 3 mg/kg, D3): 65.86 mm^3
Tumor Volume ([3]; 3 mg/kg, D7): 44.80 mm^3
Tumor Volume ([3]; 3 mg/kg, D10): 33.94 mm^3
Tumor Volume ([3]; 3 mg/kg, D14): 27.48 mm^3
Tumor Volume ([3]; 3 mg/kg, D17): 24.62 mm^3
Tumor Volume ([3]; 3 mg/kg, D21): 9.14 mm^3
Tumor Volume ([3]; 3 mg/kg, D24): 13.52 mm^3
Tumor Volume ([3]; 3 mg/kg, D28): 10.79 mm^3
Tumor Volume ([3]; 3 mg/kg, D31): 17.13 mm^3
Tumor Volume ([3]; 3 mg/kg, D35): 14.44 mm^3
Tumor Volume ([3]; 3 mg/kg, D38): 12.85 mm^3
T/C ratio ([3]; 3 mg/kg): 1.02%
TGI inhibition rate ([3]; 3 mg/kg): 105.53%
tumor growth inhibition ([3]; 0.3-3 mg/kg): significant tumor growth inhibition
changes in body weight ([3]; during the treatment period): No significant changes in body weight
